Assay results reported in US20230416704A1, “LACTONASE AND STABILIZED MUTANTS THEREOF FOR TREATING FUNGAL INFECTIONS IN PLANTS” (MIGAL GALILEE RESEARCH INSTITUTE LTD., priority 2020, published 2023).

Columns and labels:
P. expansum = experiment: Pathogenicity assay in apples (EaAiiA)
Protocol: The lesion size of the treated apples was measured 3 days after inoculation with P. expansum. Mean values of 18 replicates are presented (**** p<0.0001, according to one-way ANOVA followed by Tukey-Kramer).
Pathogenicity assay in apples. P. expansum spores (50 spores/ml) were incubated in 1 ml LB medium/sterile water at 25° C. 300 rpm either alone or 2 μM EaAiiA, and apples were then inoculated and incubated in the same manner as described above. Enzyme incubated with 50 mM EDTA at 90° C. for 1 hour was used as a negative control (inactivated enzyme).

[1] = Enzyme kinetics analysis of EaAiiA with patulin; conditions: 0.05 μM EaAiiA, patulin 0-0.4 mM, pH 7.5, 100 μM ZnCl2
Protocol: (6A) Michaelis-Menten kinetics analysis with 0.05 μM purified bacterial lactonase (EaAiiA), in activity buffer containing 100 mM Tris pH 7.5, 100 mM NaCl, 100 μM ZnCl2, at Error bars indicate standard deviation of three replicates for each treatment.
Enzyme kinetics analysis with patulin. EaAiiA activity (0.05 μM) with patulin was analyzed as follows: EaAiiA activity was measured by detecting the reduction in the UV absorbance (detected at 278 nm) of patulin at different concentrations (0-0.4 mM) in the presence of enzyme at a final concentration of 0.05 μM, in an activity buffer containing 100 mM Tris pH 7.5, 100 mM NaCl, 100 μM ZnCl2, in UV 96-well plates. An activity buffer was used as a negative control. The activity was monitored in a microtiter plate reader (BioTeK, Winooski, VT, USA). Reactions were performed as the concentration of organic solvent was lower than 1%. Vo initial rates were corrected for the patulin spontaneous hydrolysis background rate performed with an activity buffer. Kinetic parameters were obtained by GraphPad software as fitting initial rates directly to the Michaelis-Menten equation, standard deviations obtained from three independent measurements.

B1: EaAiiA: AHL lactonase encoded by Erwinia amylovora, metallo-β-lactamase fold (protein, listed as Erwinia amylovora)
chain: MNYHIIPVTAFAQNCSVIWCPETGEAALVDPGGDAQKIKHEIAALGLTVKQILLTHGHLDHVGAAAELAEHYDVPIVGPHKADKFWLDGLPQQSQMFGFDECAPLTPDRWLQEGEVVLVGNTVLEVLLCPGHTPGHIVFFERKARLLVSGDVIFSGGVGRSDFPQGSHQDLIASILNKLLPLGDDVTFIAGHGPMSTLGRERISNPFLQ
- effect of inactivated enzyme on inhibition of fungal colonization (P. expansum; EaAiiA inactivated by 90° C. and EDTA prior to incubation with spores): fully reduced the inhibition
- decline of colonized area (P. expansum; spores incubated with 2 μM EaAiiA prior to apple inoculation, third day after inoculation): 85%
- kcat [1]: 5.426 ± 1.5 s⁻¹
- Km ([1]; read-out: estimated KM): 764 ± 284 µM
